{"source": "patent US20240209078A1", "about": "(Amgen, published 2024)", "binders": {"B1": {"name": "MS 15-B12 CC × 6H10.09 × (G4) × heFc (A) * heFc (B) × (G4) × CH3 15-E11 CC × 6H10.09 (Seq ID 326 + 327) (bispecific antibody)", "chain 1": "not shown", "chain 2": "DKTHTCPPCPAPELLGGPSVFLFPPKPKDTLMISRTPEVTCVVVDVSHEDPEVKFNWYVDGVEVHNAKTKPCEEQYGSTYRCVSVLTVLHQDWLNGKEYKCKVSNKALPAPIEKTISKAKGQPREPQVYTLPPSRKEMTKNQVSLTCLVKGFYPSDIAVEWESNGQPENNYKTTPPVLKSDGSFFLYSKLTVDKSRWQQGNVFSCSVMHEALHNHYTQKSLSLSPGKGGGGQVQLVQSGAEVKKPGASVKVSCKASGYTFTNYWMNWVRQAPGQCLEWMGNIAYGVKGTNYNQKFQGRVTMTVDTSSSTAYMELSRLRSDDTAVYYCATRYFYVMDYWGQGTLVTVSSGGGGSGGGGSGGGGSDIQMTQSPSSLSASVGDRVTITCRASQDISNYLNWYQQKPGKVPKLLIYYTSRLHSGVPSRFSGSGSGTDFTLTISSLQPEDVATYYCVQYAQFPLTFGCGTKVEIKSGGGGSEVQLVESGGGLVQPGGSLKLSCAASGFTFNKYAMNWVRQAPGKGMEWVARIRSKYNNYATYYADAVKDRFTISRDDSKNTLYLQMNNLKTEDTAVYYCVRAGNFGSSYISYFAYWGQGTLVTVSSGGGGSGGGGSGGGGSQTVVTQEPSLTVSPGGTVTITCGSSTGAVTSGNYPNWIQKKPGQAPRGLIGGTKFLAPGTPARFSGSLEGGKAALTLSGVQPEDEAEYYCVLYYSNRWVFGSGTKLTVL"}, "B2": {"name": "MS 15-B12 CC × I2L × G4 × scFc × G4 × CH3 15-E11 CC × I2L_GQ (bispecific antibody)", "chain": "QVQLQESGPGLVKPSETLSLTCTVSGGSISSSSYFWGWIRQPPGKCLEWIGNIYYSGSSNYNPSLKSRVTISVDTSKNQFSLKLSSVTAADTAVYYCARLPRGDRDAFDIWGQGTMVTVSSGGGGQGGGGQGGGGQDIVMTQSPSSLSASVGDRVTITCRASQGISNYLAWYQQKPGKVPKLLIYAASTLQSGVPSRFSGSGSGTDFTLTISSLQPEDFATYYCQQSYSTPFTFGCGTKVEIKSGGGGQEVQLVESGGGLVQPGGSLKLSCAASGFTFNKYAMNWVRQAPGKGMEWVARIRSKYNNYATYYADAVKDRFTISRDDSKNTLYLQMNNLKTEDTAVYYCVRAGNFGSSYISYFAYWGQGTLVTVSSGGGGQGGGGQGGGGQQTVVTQEPSLTVSPGGTVTITCGSSTGAVTSGNYPNWIQKKPGQAPRGLIGGTKFLAPGTPARFSGSLEGGKAALTLSGVQPEDEAEYYCVLYYSNRWVFGSGTKLTVLGGGGCPPCPAPELLGGPSVFLFPPKPKDTLMISRTPEVTCVVVDVSHEEPEVKFNWYVDGVEVHNAKTKPCEEQYGSTYRCVSVLTVLHQDWLNGKEYKCKVSNKALPAPIEKTISKAKGQPREPQVYTLPPSREEMTKNQVSLTCLVKGFYPSDIAVEWESNGQPENNYKTTPPVLDSDGSFFLYSKLTVDKSRWQQGNVFSCSVMHEALHNHYTQKSLSLSPGKGGGGQGGGGQGGGGQGGGGQGGGGQGGGGQCPPCPAPELLGGPSVFLFPPKPKDTLMISRTPEVTCVVVDVSHEEPEVKFNWYVDGVEVHNAKTKPCEEQYGSTYRCVSVLTVLHQDWLNGKEYKCKVSNKALPAPIEKTISKAKGQPREPQVYTLPPSREEMTKNQVSLTCLVKGFYPSDIAVEWESNGQPENNYKTTPPVLDSDGSFFLYSKLTVDKSRWQQGNVFSCSVMHEALHNHYTQKSLSLSPGKGGGGQVQLVQSGAEVKKPGASVKVSCKASGYTFTNYWMNWVRQAPGQCLEWMGNIAYGVKGTNYNQKFQGRVTMTVDTSSSTAYMELSRLRSDDTAVYYCATRYFYVMDYWGQGTLVTVSSGGGGQGGGGQGGGGQDIQMTQSPSSLSASVGDRVTITCRASQDISNYLNWYQQKPGKVPKLLIYYTSRLHSGVPSRFSGSGSGTDFTLTISSLQPEDVATYYCVQYAQFPLTFGCGTKVEIKSGGGGQEVQLVESGGGLVQPGGSLKLSCAASGFTFNKYAMNWVRQAPGKGMEWVARIRSKYNNYATYYADAVKDRFTISRDDSKNTLYLQMNNLKTEDTAVYYCVRAGNFGSSYISYFAYWGQGTLVTVSSGGGGQGGGGQGGGGQQTVVTQEPSLTVSPGGTVTITCGSSTGAVTSGNYPNWIQKKPGQAPRGLIGGTKFLAPGTPARFSGSLEGGKAALTLSGVQPEDEAEYYCVLYYSNRWVFGSGTKLTVL"}, "B3": {"name": "CH3 15-E11 CC × I2L × (G4Q)3 × scFc × (G4Q)3 × MS 15-B12 CC × I2L (bispecific antibody)", "chain": "QVQLVQSGAEVKKPGASVKVSCKASGYTFTNYWMNWVRQAPGQCLEWMGNIAYGVKGTNYNQKFQGRVTMTVDTSSSTAYMELSRLRSDDTAVYYCATRYFYVMDYWGQGTLVTVSSGGGGQGGGGQGGGGQDIQMTQSPSSLSASVGDRVTITCRASQDISNYLNWYQQKPGKVPKLLIYYTSRLHSGVPSRFSGSGSGTDFTLTISSLQPEDVATYYCVQYAQFPLTFGCGTKVEIKSGGGGQEVQLVESGGGLVQPGGSLKLSCAASGFTFNKYAMNWVRQAPGKGMEWVARIRSKYNNYATYYADAVKDRFTISRDDSKNTLYLQMNNLKTEDTAVYYCVRAGNFGSSYISYFAYWGQGTLVTVSSGGGGQGGGGQGGGGQQTVVTQEPSLTVSPGGTVTITCGSSTGAVTSGNYPNWIQKKPGQAPRGLIGGTKFLAPGTPARFSGSLEGGKAALTLSGVQPEDEAEYYCVLYYSNRWVFGSGTKLTVLGGGGQGGGGQGGGGQCPPCPAPELLGGPSVFLFPPKPKDTLMISRTPEVTCVVVDVSHEEPEVKFNWYVDGVEVHNAKTKPCEEQYGSTYRCVSVLTVLHQDWLNGKEYKCKVSNKALPAPIEKTISKAKGQPREPQVYTLPPSREEMTKNQVSLTCLVKGFYPSDIAVEWESNGQPENNYKTTPPVLDSDGSFFLYSKLTVDKSRWQQGNVFSCSVMHEALHNHYTQKSLSLSPGKGGGGQGGGGQGGGGQGGGGQGGGGQGGGGQCPPCPAPELLGGPSVFLFPPKPKDTLMISRTPEVTCVVVDVSHEEPEVKFNWYVDGVEVHNAKTKPCEEQYGSTYRCVSVLTVLHQDWLNGKEYKCKVSNKALPAPIEKTISKAKGQPREPQVYTLPPSREEMTKNQVSLTCLVKGFYPSDIAVEWESNGQPENNYKTTPPVLDSDGSFFLYSKLTVDKSRWQQGNVFSCSVMHEALHNHYTQKSLSLSPGKGGGGQGGGGQGGGGQQVQLQESGPGLVKPSETLSLTCTVSGGSISSSSYFWGWIRQPPGKCLEWIGNIYYSGSSNYNPSLKSRVTISVDTSKNQFSLKLSSVTAADTAVYYCARLPRGDRDAFDIWGQGTMVTVSSGGGGQGGGGQGGGGQDIVMTQSPSSLSASVGDRVTITCRASQGISNYLAWYQQKPGKVPKLLIYAASTLQSGVPSRFSGSGSGTDFTLTISSLQPEDFATYYCQQSYSTPFTFGCGTKVEIKSGGGGQEVQLVESGGGLVQPGGSLKLSCAASGFTFNKYAMNWVRQAPGKGMEWVARIRSKYNNYATYYADAVKDRFTISRDDSKNTLYLQMNNLKTEDTAVYYCVRAGNFGSSYISYFAYWGQGTLVTVSSGGGGQGGGGQGGGGQQTVVTQEPSLTVSPGGTVTITCGSSTGAVTSGNYPNWIQKKPGQAPRGLIGGTKFLAPGTPARFSGSLEGGKAALTLSGVQPEDEAEYYCVLYYSNRWVFGSGTKLTVL"}, "B4": {"name": "MS 15-B12 CC × I2L × (G4Q)3 × scFc × (G4Q)3 × CH3 15-E11 CC × I2L (bispecific antibody)", "chain": "QVQLQESGPGLVKPSETLSLTCTVSGGSISSSSYFWGWIRQPPGKCLEWIGNIYYSGSSNYNPSLKSRVTISVDTSKNQFSLKLSSVTAADTAVYYCARLPRGDRDAFDIWGQGTMVTVSSGGGGQGGGGQGGGGQDIVMTQSPSSLSASVGDRVTITCRASQGISNYLAWYQQKPGKVPKLLIYAASTLQSGVPSRFSGSGSGTDFTLTISSLQPEDFATYYCQQSYSTPFTFGCGTKVEIKSGGGGQEVQLVESGGGLVQPGGSLKLSCAASGFTFNKYAMNWVRQAPGKGMEWVARIRSKYNNYATYYADAVKDRFTISRDDSKNTLYLQMNNLKTEDTAVYYCVRAGNFGSSYISYFAYWGQGTLVTVSSGGGGQGGGGQGGGGQQTVVTQEPSLTVSPGGTVTITCGSSTGAVTSGNYPNWIQKKPGQAPRGLIGGTKFLAPGTPARFSGSLEGGKAALTLSGVQPEDEAEYYCVLYYSNRWVFGSGTKLTVLGGGGQGGGGQGGGGQCPPCPAPELLGGPSVFLFPPKPKDTLMISRTPEVTCVVVDVSHEEPEVKFNWYVDGVEVHNAKTKPCEEQYGSTYRCVSVLTVLHQDWLNGKEYKCKVSNKALPAPIEKTISKAKGQPREPQVYTLPPSREEMTKNQVSLTCLVKGFYPSDIAVEWESNGQPENNYKTTPPVLDSDGSFFLYSKLTVDKSRWQQGNVFSCSVMHEALHNHYTQKSLSLSPGKGGGGQGGGGQGGGGQGGGGQGGGGQGGGGQCPPCPAPELLGGPSVFLFPPKPKDTLMISRTPEVTCVVVDVSHEEPEVKFNWYVDGVEVHNAKTKPCEEQYGSTYRCVSVLTVLHQDWLNGKEYKCKVSNKALPAPIEKTISKAKGQPREPQVYTLPPSREEMTKNQVSLTCLVKGFYPSDIAVEWESNGQPENNYKTTPPVLDSDGSFFLYSKLTVDKSRWQQGNVFSCSVMHEALHNHYTQKSLSLSPGKGGGGQGGGGQGGGGQQVQLVQSGAEVKKPGASVKVSCKASGYTFTNYWMNWVRQAPGQCLEWMGNIAYGVKGTNYNQKFQGRVTMTVDTSSSTAYMELSRLRSDDTAVYYCATRYFYVMDYWGQGTLVTVSSGGGGQGGGGQGGGGQDIQMTQSPSSLSASVGDRVTITCRASQDISNYLNWYQQKPGKVPKLLIYYTSRLHSGVPSRFSGSGSGTDFTLTISSLQPEDVATYYCVQYAQFPLTFGCGTKVEIKSGGGGQEVQLVESGGGLVQPGGSLKLSCAASGFTFNKYAMNWVRQAPGKGMEWVARIRSKYNNYATYYADAVKDRFTISRDDSKNTLYLQMNNLKTEDTAVYYCVRAGNFGSSYISYFAYWGQGTLVTVSSGGGGQGGGGQGGGGQQTVVTQEPSLTVSPGGTVTITCGSSTGAVTSGNYPNWIQKKPGQAPRGLIGGTKFLAPGTPARFSGSLEGGKAALTLSGVQPEDEAEYYCVLYYSNRWVFGSGTKLTVL"}}, "assay_in_all_cases": "cell-based or functional assay", "key": {"human MSLN": {"target": "human MSLN (human, UniProt Q13421 37-598)"}, "human CDH3": {"target": "human CDH3 (human, UniProt P22223 108-829)"}, "[1]": {"target": "T1, human CDH3 (Cadherin-3, P-Cadherin) (human, UniProt P22223 108-829)"}, "human MSLN (mesothelin) [2]": {"target": "T2, human MSLN (mesothelin) (human, UniProt Q13421 37-598)"}, "[3]": {"target": "T1, human CDH3 (Cadherin-3, P-Cadherin)", "remark": "listed apart in the source"}, "human MSLN (mesothelin) [4]": {"target": "T2, human MSLN (mesothelin)", "remark": "listed apart in the source"}}, "data": [{"binder": "B1", "values": [{"measurement": "EC50 GSU KO CDH3 (cytotoxicity; cells CDH3-, MSLN+)", "setting": "human MSLN", "result": 0.391, "unit": "nM"}, {"measurement": "EC50 GSU wt (cytotoxicity; cells CDH3+, MSLN+)", "setting": "human MSLN", "result": 0.0032, "unit": "nM"}, {"measurement": "Fold selectivity gap, GSU KO CDH3 against GSU wt", "setting": "human MSLN", "result": 121, "unit": "fold"}, {"measurement": "EC50 GSU KO MSLN (cytotoxicity; cells CDH3+, MSLN-)", "setting": "human CDH3", "result": 0.533, "unit": "nM"}, {"measurement": "EC50 GSU wt (cytotoxicity; cells CDH3+, MSLN+)", "setting": "human CDH3", "result": 0.0032, "unit": "nM"}, {"measurement": "Fold selectivity gap, GSU KO MSLN against GSU wt", "setting": "human CDH3", "result": 165, "unit": "fold"}]}, {"binder": "B2", "values": [{"measurement": "cytotoxicity EC50, GSU KO MSLN cells", "setting": "[1]", "result": 0.502, "unit": "nM"}, {"measurement": "cytotoxicity EC50, GSU KO CDH3 cells", "setting": "human MSLN (mesothelin) [2]", "result": 0.115, "unit": "nM"}, {"measurement": "cytotoxicity EC50, HCT 116 KO MSLN cells", "setting": "[3]", "result": 0.001, "unit": "nM"}, {"measurement": "cytotoxicity EC50, HCT 116 KO CDH3 cells", "setting": "human MSLN (mesothelin) [4]", "result": 0.0445, "unit": "nM"}]}, {"binder": "B3", "values": [{"measurement": "cytotoxicity EC50, GSU KO MSLN cells", "setting": "[1]", "result": 3.33, "unit": "nM"}, {"measurement": "cytotoxicity EC50, GSU KO CDH3 cells", "setting": "human MSLN (mesothelin) [2]", "result": 0.171, "unit": "nM"}, {"measurement": "cytotoxicity EC50, HCT 116 KO MSLN cells", "setting": "[3]", "result": 0.0085, "unit": "nM"}, {"measurement": "cytotoxicity EC50, HCT 116 KO CDH3 cells", "setting": "human MSLN (mesothelin) [4]", "result": 0.0226, "unit": "nM"}]}, {"binder": "B4", "values": [{"measurement": "cytotoxicity EC50, GSU KO MSLN cells", "setting": "[1]", "result": 1.73, "unit": "nM"}, {"measurement": "cytotoxicity EC50, GSU KO CDH3 cells", "setting": "human MSLN (mesothelin) [2]", "result": 2.9, "unit": "nM"}, {"measurement": "cytotoxicity EC50, HCT 116 KO MSLN cells", "setting": "[3]", "result": 0.0035, "unit": "nM"}, {"measurement": "cytotoxicity EC50, HCT 116 KO CDH3 cells", "setting": "human MSLN (mesothelin) [4]", "result": 0.0292, "unit": "nM"}]}]}
